Measured values as given in PMC11685791, “Noncanonical calcium binding motif controls folding of HopQ1, a Pseudomonas syringae type III secretion effector, in a pH-dependent manner” (Scientific Reports, 2024).
“And” between values parts separate entries of the source, which are not always exact repeats. Equal values may be shown once.

Legend:
[1] = molecular target: HopQ1 fused to ECFP or EYFP, expressed in N. benthamiana (Pseudomonas savastanoi pv. phaseolicola 1448A (former Pseudomonas syringae pv. phaseolicola 1448A)) (UniProt Q48BD8); assay: FRET or BRET; FLIM-FRET in nuclei of N. benthamiana leaf cells; donor fused to ECFP, acceptor fused to EYFP, transiently co-expressed; eight to ten nuclei per combination
[2] = molecular target: Recombinant HopQ1 with a C-terminal 6 × His epitope (Pseudomonas savastanoi pv. phaseolicola 1448A (former Pseudomonas syringae pv. phaseolicola 1448A)) (UniProt Q48BD8); assay: SEC; gel filtration on Superdex 200, reducing conditions with chelating agent (1 mM EDTA)
[3] = molecular target: Recombinant HopQ1 with a C-terminal 6 × His epitope (Pseudomonas savastanoi pv. phaseolicola 1448A (former Pseudomonas syringae pv. phaseolicola 1448A)) (UniProt Q48BD8); assay: SEC-MALS; native (non-reducing) conditions; Superdex 200 10/300GL, 100 mM Tris-HCl, 150 mM NaCl, pH 8.0, 4 °C; 0.4 mg protein per run
[4] = molecular target: the molecule itself; assay: SEC; gel filtration on Superdex 200 of the calcium-site mutant; 'all the conditions tested' (not listed for the mutant)
[5] = molecular target: the molecule itself; assay: SEC; gel filtration on Superdex 200, reducing conditions with chelating agent (1 mM EDTA)

Nt14-3-3a-ECFP (natural protein)
FRET efficiency [1]: 14.2%

Recombinant HopQ1 with a C-terminal 6 × His epitope (from UniProt Q48BD8 1-447) (natural protein)
stoichiometry N [2]: 2
stoichiometry N [3]: 2 and 3

B1: HopQ1-D107A_D108A (recombinant, 6 × His) (natural protein)
chain: MHRPITAGHTTSRLILDQLKQISRTPSESSVQSALSQQASMSSPVLERSKSAPALLTAAQRTMLAQVGACNSHLTSDENMAINELRLHKPRLPKDTWFFTDPNKDPAAVVTYTLGKQLQAEGFVHITDVVATLGDAEVRSQRAEMAKGVFNKLGLHDVHVSRGRDYAMNSLQSKEHAKFLLEGHALRAGPGEIHRDSLQDMSRRLARAPHGVGIVVIAGMSDINALITTCPDMVRERVDDITIMGGVEPLKDADGFVQPDARAYNNATDMDAARSLYRKAQELGIPLRIVTKEAAYKTAVSPSFYEGIAGSGHPVGHYLRDVQKSALKGLWEGIQAGLLPGLDDSWFFRTFMPNAQIEAAQLDKNKESSFEDIWPKVTKLNLYDPLTLLASVPGAAKLLFKPKAIHTEGFGVVEQVGPDDVTHPEKAKLLMSALAKSALVQSTVAPD
notes: HopQ1 of Pseudomonas savastanoi pv. phaseolicola 1448A, GenBank AAZ37975.1, with D107A and D108A; source: E. coli BL21 Rosetta, purified
stoichiometry N [4]: 2

B2: RihA, a pyrimidine-specific ribonucleoside hydrolase from E. coli K-12 (enzyme, UniProt P41409 1-311, looked up)
chain: MALPILLDCDPGHDDAIAIVLALASPELDVKAITSSAGNQTPEKTLRNVLRMLTLLNRTDIPVAGGAVKPLMRELIIADNVHGESGLDGPALPEPTFAPQNCTAVELMAKTLRESAEPVTIVSTGPQTNVALLLNSHPELHSKIARIVIMGGAMGLGNWTPAAEFNIYVDPEAAEIVFQSGIPVVMAGLDVTHKAQIHVEDTERFRAIGNPVSTIVAELLDFFLEYHKDEKWGFVGAPLHDPCTIAWLLKPELFTSVERWVGVETQGKYTQGMTVVDYYYLTGNKPNATVMVDVDRQGFVDLLADRLKFYA
notes: RihA (also known as YbeK), pyrimidine-specific ribonucleoside hydrolase of E. coli K-12; also called YbeK; source: E. coli BL21 Rosetta, purified
stoichiometry N [5]: 4
